Changes are numbered by the printed parent chain.
B1: Jovi Hum 8 (antibody, V domains shown)
VH: QVQLVQSGAEVKKPGASVKVSCKASGYTFTGYVMHWVRQAPGQGLEWMGFINPYNDDIQSNERFRGRVTMTRDTSISTAYMELSRLRSDDTAVYYCARGAGYNFDGAYRFFDFWGQGTMVTVSS
VL: DIVMTQSPLSLPVTPGEPASISCRSSQRLVHSNGNTYLHWYLQKPGQSPRLLIYRVSNRFPGVPDRFSGSGSGTDFTLKISRVEAEDVGVYYCSQSTHVPYTFGQGTKLEIK
notes: also called H-AF 1; humanised antibody with H-AF062256 VH and 3aaz VL
B2: Jovi Hum 21 (antibody, V domains shown)
VH: B1 VH with M48I, R72S
VL: B1 VL
notes: also called H-AF 7
B3: Jovi Hum 26 (antibody, V domains shown)
VH: B1 VH with V20M, R72S, T74K
VL: B1 VL
notes: also called H-AF 12
B4: Jovi Hum 16 (antibody, V domains shown)
VH: B1 VH with T74K
VL: B1 VL
notes: also called H-AF 2
B5: Jovi Hum 18 (antibody, V domains shown)
VH: B1 VH with R72S, T74K
VL: B1 VL
notes: also called H-AF 4
B6: Jovi Hum 27 (antibody, V domains shown)
VH: B1 VH with V20M, M48I
VL: B1 VL
notes: also called H-AF 13
B7: Jovi Hum 17 (antibody, V domains shown)
VH: B1 VH with R72S
VL: B1 VL
notes: also called H-AF 3
B8: Jovi Hum 19 (antibody, V domains shown)
VH: B1 VH with M48I
VL: B1 VL
notes: also called H-AF 5
B9: Jovi Hum 20 (antibody, V domains shown)
VH: B1 VH with M48I, T74K
VL: B1 VL
notes: also called H-AF 6

Target: T1, T Cell Receptor Beta Constant 2 (TRBC2) (human, UniProt A0A5B9 1-144, limits assumed)
T1 construct: ELISA antigen; also called TCR beta constant region 2
T1 sequence (A0A5B9 1-144 limits assumed): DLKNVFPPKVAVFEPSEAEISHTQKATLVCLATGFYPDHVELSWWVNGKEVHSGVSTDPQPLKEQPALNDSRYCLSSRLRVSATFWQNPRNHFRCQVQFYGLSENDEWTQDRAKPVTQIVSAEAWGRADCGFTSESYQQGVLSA
Test: ELISA

| binding result | Binder |
| --- | --- |
| no binding | B1 |
| no binding | B2 |
| no binding | B3 |
| no binding | B4 |
| no binding | B5 |
| no binding | B6 |
| no binding | B7 |
| no binding | B8 |
| no binding | B9 |
